B1: EEHEE_rd4_0003 (parent)
chain: KKVTINGVEIKFNNPEEAVKFALELAKRLNLRIEFHGDQIKIE
B2: EEHEE_rd4_0363 (parent)
chain: VTVDIKGMEYHFDNPEEAKKFAERMAKELGGELKVENGTLKVE

Variants of: B1
Experiment: folding stability dG (cDNA display proteolysis); higher = more stable
Conditions: PBS, room temperature

First: KKVTINGVEIKFNNPEEAVKFALELAKRLNLRIEFHGDQGKIE
Second: KKVTINGVEIKFNNPEEAVKFALELAKRLNLRIEFHGDQTKIE
The “folding stability dG” value of the first is lower: 1.37 kcal/mol for the first, 1.51 kcal/mol for the second.

Going from KKVTINGVEIKFNNPEEAVKFALELAKRLNLRIEFHGDQYKIE to KKVTINGVEIKFNNPEEAVKFALELAKRLNLRIEFHGDQMKIE, the “folding stability dG” value rises from 1.64 kcal/mol to 1.92 kcal/mol.

Compared with KKVTINGVEIKFNNPEEAVKFALELAKRLNLRIEFHGDQCKIE, KKVTINGVEIKFNNPEEAVKFALELAKRLNLRIEFHGDQSKIE is lower in “folding stability dG” value: 2.22 kcal/mol for the first, 1.43 kcal/mol for the second.

Compared with KKVTINGVEIKFNNPEEAVKFALELAKRLNLRIEFHGDQVKIE, KKVTINGVEIKFNNPEEAVKFALELAKRLNLRIEFHGDQEKIE is lower in “folding stability dG” value: 2.07 kcal/mol for the first, 1.44 kcal/mol for the second.

First: KKVTINGVEIKFNNPEEAVKFALELAKRLNLRIEFHGDQQKIE
Second: KKVTINGVEIKFNNPEEAVKFALELAKRLNLRIEFHGDQWKIE
The “folding stability dG” value of the first is lower: 1.39 kcal/mol for the first, 2.02 kcal/mol for the second.

Compared with KKVTINGVEIKFNNPEEAVKFALELAKRLNLRIEFHGDQRKIE, KKVTINGVEIKFNNPEEAVKFALELAKRLNLRIEFHGDQPKIE is lower in “folding stability dG” value: 1.25 kcal/mol for the first, 1.24 kcal/mol for the second.

First: KKVTINGVEIKFNNPEEAVKFALELAKRLNLRIEFHGDQNKIE
Second: KKVTINGVEIKFNNPEEAVKFALELAKRLNLRIEFHGDQHKIE
The “folding stability dG” value of the first is lower: 1.44 kcal/mol for the first, 1.56 kcal/mol for the second.

For KKVTINGVEIKFNNPEEAVKFALELAKRLNLRIEFHGDQFKIE, the “folding stability dG” value was 1.78 kcal/mol.

Variants of: B2
Experiment: as above
Conditions: PBS, room temperature

First: VTVDIKGMEYHFDNPEYAKKFAERMAKELGGELKVENGTLKVE
Second: VTVDIKGMEYHFDNPEHAKKFAERMAKELGGELKVENGTLKVE
The “folding stability dG” value of the first is lower: 0.905 kcal/mol for the first, 1.2 kcal/mol for the second.

Compared with VTVDIKGMEYHFDNPEDAKKFAERMAKELGGELKVENGTLKVE, VEVDIKGMEYHFDNPEEAKKFAERMAKELGGELKVENGTLKVE is lower in “folding stability dG” value: 2.08 kcal/mol for the first, 0.41 kcal/mol for the second.

First: VMVDIKGMEYHFDNPEEAKKFAERMAKELGGELKVENGTLKVE
Second: VTVDIKGMMYHFDNPEEAKKFAERMAKELGGELKVENGTLKVE
The “folding stability dG” value of the first is lower: 1.71 kcal/mol for the first, 2.92 kcal/mol for the second.

First: VTVDIKGMEYHFDNPEEAKKFAERMAKELGGELKVENGTLKVL
Second: VTVDIKGMEYHFDNPEEAKKFAERMAKELGGELKVENETLKVE
The “folding stability dG” value of the first is higher: 2.66 kcal/mol for the first, 1.13 kcal/mol for the second.

Compared with VTVDIKGMEYHFDNPEEAKKFAERMAKELGGELKRENGTLKVE, VTVDIKGMEYHFDNPEEAKKFAECMAKELGGELKVENGTLKVE is higher in “folding stability dG” value: 1.25 kcal/mol for the first, 2.83 kcal/mol for the second.

First: VTVDIKGMEYHFDNPEEAKKFAEKMAKELGGELKVENGTLKVE
Second: VTVDIKGMEAHFDNPEEAKKFAERMAKELGGELKVENGTLKVE
The “folding stability dG” value of the first is higher: 2.01 kcal/mol for the first, 0.161 kcal/mol for the second.

First: VTVDIKGMEDHFDNPEEAKKFAERMAKELGGELKVENGTLKVE
Second: VTVDIKGMEYHFDNPEEAKKFAERMAKELGGELKVEYGTLKVE
The “folding stability dG” value of the first is lower: -0.462 kcal/mol for the first, 1.19 kcal/mol for the second.

Going from VTVDIKGMEYHFDNPEEAKKFAERMAKELGGELKVEKGTLKVE to VTVDIKGMEYHFDNPEEAKKFAERMAKELGGELKVENGTSKVE, the “folding stability dG” value falls from 1.45 kcal/mol to 0.813 kcal/mol.

Compared with VTVDIKGMEYHFDNPEEAKKFAERMAKELGGELKVENGTHKVE, VTVDIKGMEYHVDNPEEAKKFAERMAKELGGELKVENGTLKVE is lower in “folding stability dG” value: 0.973 kcal/mol for the first, -0.424 kcal/mol for the second.

Compared with VTVDIKGMEYHFDNPEEAKKFAERMWKELGGELKVENGTLKVE, VTVDIKGMEYHFDNPEEAKLFAERMAKELGGELKVENGTLKVE is higher in “folding stability dG” value: 1.48 kcal/mol for the first, 2.06 kcal/mol for the second.

Compared with VTVDIKGMEYHFDNPEEAKKFAERMAKELGGELYVENGTLKVE, VTVDIKGMEYHFDNPEEAKKFAERMAKELGGELVVENGTLKVE is higher in “folding stability dG” value: 1.98 kcal/mol for the first, 2.26 kcal/mol for the second.

Going from NTVDIKGMEYHFDNPEEAKKFAERMAKELGGELKVENGTLKVE to ITVDIKGMEYHFDNPEEAKKFAERMAKELGGELKVENGTLKVE, the “folding stability dG” value rises from 1.31 kcal/mol to 2.06 kcal/mol.

Going from VTVDIKGMEYHFDNPEEAKKFAYRMAKELGGELKVENGTLKVE to VTVDIKGMEYHFDNPEEAKKFAQRMAKELGGELKVENGTLKVE, the “folding stability dG” value rises from 1.5 kcal/mol to 1.65 kcal/mol.

First: VTVDIKGMEYHFDNPEEAKKFAFRMAKELGGELKVENGTLKVE
Second: VTVDIKGMEYHFDNPEEAKKFAERMAKELGGELKVENGTLKAE
The “folding stability dG” value of the first is higher: 1.27 kcal/mol for the first, 0.786 kcal/mol for the second.

Going from VTVDIKGMEYHFDNPEEAKKFLERMAKELGGELKVENGTLKVE to VTVDIKGMEYHFDNPEEAKKFAERMAQELGGELKVENGTLKVE, the “folding stability dG” value rises from 1.48 kcal/mol to 2.09 kcal/mol.

Going from VTVDIKGMEYHFDNPQEAKKFAERMAKELGGELKVENGTLKVE to VTVDIKGMEYHFDNPWEAKKFAERMAKELGGELKVENGTLKVE, the “folding stability dG” value rises from 1.67 kcal/mol to 1.98 kcal/mol.

Compared with VTVDIKGMEYHFDNPEEAKKFAERMAKELGGELKVKNGTLKVE, VTVDIKGGEYHFDNPEEAKKFAERMAKELGGELKVENGTLKVE is lower in “folding stability dG” value: 1.4 kcal/mol for the first, 0.564 kcal/mol for the second.

Going from VTVDCKGMEYHFDNPEEAKKFAERMAKELGGELKVENGTLKVE to VTVDAKGMEYHFDNPEEAKKFAERMAKELGGELKVENGTLKVE, the “folding stability dG” value falls from 1.99 kcal/mol to 0.423 kcal/mol.

First: VTVDIKGMEYLFDNPEEAKKFAERMAKELGGELKVENGTLKVE
Second: VTVDIKGMEYHFDNSEEAKKFAERMAKELGGELKVENGTLKVE
The “folding stability dG” value of the first is lower: 1.55 kcal/mol for the first, 1.64 kcal/mol for the second.

Compared with VTRDIKGMEYHFDNPEEAKKFAERMAKELGGELKVENGTLKVE, VTSDIKGMEYHFDNPEEAKKFAERMAKELGGELKVENGTLKVE is higher in “folding stability dG” value: -0.231 kcal/mol for the first, 0.004 kcal/mol for the second.

First: VTVDIKGMEYHFDNPEEAKKFAERMAKELGVELKVENGTLKVE
Second: VTVDIKGMEYHFDNPEEAKKFAERMAKELGGELKVENGCLKVE
The “folding stability dG” value of the first is lower: 1.85 kcal/mol for the first, 1.89 kcal/mol for the second.

First: VTVDIKGMEYHFDNPEEAKKFAERMAKESGGELKVENGTLKVE
Second: VTVDIKGMEYHFDNPEEAKKFAERMAKEIGGELKVENGTLKVE
The “folding stability dG” value of the first is lower: 1.12 kcal/mol for the first, 1.57 kcal/mol for the second.

From the MegaScale stability set (Tsuboyama et al. 2023)
